The text below walks through data of the supplement of paper PMC10567573.

± gives the standard deviation.

This data set in a line: protein stability index of a GFP-peptide fusion (GPS, HEK-293T) (PSI 1-6); higher = more stable. Conditions: c terminus: a fixed tail appended.
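Further: 24-mer peptide tiles fused after GFP, lentivirally expressed, FACS-sorted into six equal bins by GFP/DsRed ratio, decoded by Illumina sequencing, PSI is the read-weighted mean bin number.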

As to GSSIPWNHLPDPEIFRQRFRQFGY [ZNF24], the protein stability index by setting is: (treatment: DMSO) 2.49 ± 0.25; (treatment: MLN4924 1 uM, 8 h) 2.66 ± 0.14.

For MTKTVQYQNELHKFLIWDTAGQER [RAB22A], the protein stability index by setting is: (treatment: DMSO) 3.03 ± 0.23; (treatment: MLN4924 1 uM, 8 h) 3.14 ± 0.17.

Take QEGSSGMELSWGQSPGQPVQGGSE [TEX19]: the protein stability index turned out to be 5.28 ± 0.26 (treatment: DMSO) and 5.29 ± 0.51 (treatment: MLN4924 1 uM, 8 h).

Turning to YGSIHGPTDYQVNIQIIEYEKKQT [BTBD1], the protein stability index is, setting by setting: (treatment: DMSO) 2.96 ± 0.48; (treatment: MLN4924 1 uM, 8 h) 3.28 ± 0.33.

With FCQMLAVVETINAAIGVTTSPVLP [HACD3], the protein stability index stood at 2.69 ± 0.4 (treatment: DMSO) and 2.54 ± 0.23 (treatment: MLN4924 1 uM, 8 h).

KNWWVRGILTLAMIAFFFIIIYLG [CDS2]: the protein stability index (treatment: DMSO) amounted to 3.07 ± 0.36 and the protein stability index (treatment: MLN4924 1 uM, 8 h) was determined as 2.85 ± 0.52.

As for TWAPKNKGGEERKAEGGEEDSLGC [IRX6], the protein stability index runs as follows: (treatment: DMSO) 5.5 ± 0.16; (treatment: MLN4924 1 uM, 8 h) 5.42 ± 0.18.

In the case of ILENTSKVPAPKDVLAHQVPNAKK [NOP53], the protein stability index reads like this: (treatment: DMSO) 4.23 ± 0.27; (treatment: MLN4924 1 uM, 8 h) 4.43 ± 0.16.

In turn, FSTYTSDKDENKLSEASGGRAENG [ZC3H15] returned a protein stability index (treatment: DMSO) of 5.38 ± 0.44 and a protein stability index (treatment: MLN4924 1 uM, 8 h) of 5.23 ± 0.58.

With AEEKERRRKEYDALKAAKREQEKK [LRRC59], the protein stability index by setting is: (treatment: DMSO) 5.31 ± 0.26; (treatment: MLN4924 1 uM, 8 h) 5.39 ± 0.12.

As for PTVHVEVHQRGSSTAKKEDINLSV [TRIP13], the protein stability index is 4.83 ± 0.2 (treatment: DMSO) and 4.84 ± 0.29 (treatment: MLN4924 1 uM, 8 h).

Turning to TEEVKFYQLGEEALLKFREDEGFV [KCNA4], the protein stability index worked out at 4.16 ± 0.3 (treatment: DMSO) and 4.3 ± 0.24 (treatment: MLN4924 1 uM, 8 h).

On to FEDAKEKMREFTKTIKRPFGVKYN [TPH1], for which the protein stability index turned out to be 2.9 ± 0.21 (treatment: DMSO) and 3.1 ± 0.26 (treatment: MLN4924 1 uM, 8 h).

As for MNAVGSPEGQELQKLGSGAWDNPA [PKD2L1], the protein stability index by setting is: (treatment: DMSO) 4.59 ± 0.2; (treatment: MLN4924 1 uM, 8 h) 4.35 ± 0.27.

In the case of KTYQETPEIDMFLNVATFLDPRYK [ZBED1], the protein stability index runs as follows: (treatment: DMSO) 2.38 ± 0.36; (treatment: MLN4924 1 uM, 8 h) 2.56 ± 0.32.

The sequence NTVVSTYVTTNVSLIPPRSEQLVN [TMEM106C] registered a protein stability index (treatment: DMSO) of 3.04 ± 0.3 and a protein stability index (treatment: MLN4924 1 uM, 8 h) of 3.19 ± 0.24.

Regarding KESRAQTLQNGRRHIHHLGNQLQL [BRF1], the protein stability index is, setting by setting: (treatment: DMSO) 3.55 ± 0.15; (treatment: MLN4924 1 uM, 8 h) 3.63 ± 0.31.

Take MRSAAVLALLLCAGQVTALPVNSP [CHGA]: the protein stability index reads like this: (treatment: DMSO) 3.21 ± 0.45; (treatment: MLN4924 1 uM, 8 h) 2.83 ± 0.57.

In the case of ALLADEERCLSCILAQQPDRLRDE [TRADD], the protein stability index reads like this: (treatment: DMSO) 4.28 ± 0.2; (treatment: MLN4924 1 uM, 8 h) 4.3 ± 0.12.

Turning to LIQPINHTTLQCLAARVIVNHRIY [FEM1C], the protein stability index is, setting by setting: (treatment: DMSO) 2.39 ± 0.3; (treatment: MLN4924 1 uM, 8 h) 2.38 ± 0.43.

For the sequence EEEEEGRFYYSEDDHGDECSYTDL [KCNA4], the protein stability index is, setting by setting: (treatment: DMSO) 5.4 ± 0.12; (treatment: MLN4924 1 uM, 8 h) 5.33 ± 0.2.

For the sequence VEGKCLQSGFEMLKDVKSTLEKCE [TRIM39], the protein stability index is, setting by setting: (treatment: DMSO) 4.31 ± 0.21; (treatment: MLN4924 1 uM, 8 h) 4.41 ± 0.19.

Take TGNVCIEEIDVDGKFIRLKNTSEQ [LMNB1]: the protein stability index by setting is: (treatment: DMSO) 4.76 ± 0.29; (treatment: MLN4924 1 uM, 8 h) 4.76 ± 0.15.

As for LDQPVSAPPSPRDISMEIDSPENM [CCDC6], the protein stability index is 5.47 ± 0.2 (treatment: DMSO) and 5.23 ± 0.41 (treatment: MLN4924 1 uM, 8 h).

Regarding FRRGEKLRVISDEGGWWKAISLST [SLA], the protein stability index is, setting by setting: (treatment: DMSO) 3.3 ± 1.1; (treatment: MLN4924 1 uM, 8 h) 2.13 ± 0.72.

With VSLGATGGPPAGPGGVYAGPEPPP [JUNB], the protein stability index came out at 4.61 ± 0.094 (treatment: DMSO) and 4.46 ± 0.31 (treatment: MLN4924 1 uM, 8 h).

For the sequence AGADLPPPKIRLKPHRLGDSEHEP [PWWP2B], the protein stability index reads like this: (treatment: DMSO) 4.83 ± 0.23; (treatment: MLN4924 1 uM, 8 h) 4.91 ± 0.28.

On to AKALNRPPTYPTKYFGCELGAQTQ [EIF5], for which the protein stability index runs as follows: (treatment: DMSO) 2.71 ± 0.23; (treatment: MLN4924 1 uM, 8 h) 3.15 ± 0.13.

On to GSLPWQGLKADTLKERYQKIGDTK [CSNK1G1], for which the protein stability index by setting is: (treatment: DMSO) 4.05 ± 0.083; (treatment: MLN4924 1 uM, 8 h) 4.19 ± 0.29.

With IHIIDFGLAKEYIDPETKKHIPYR [CSNK1G3], the protein stability index runs as follows: (treatment: DMSO) 2.1 ± 0.36; (treatment: MLN4924 1 uM, 8 h) 2.33 ± 0.17.

As to TQEGAKDLEVDMNKTEVTPRLWTT [ACSBG2], the protein stability index came to 3.55 ± 0.62 (treatment: DMSO) and 4.03 ± 0.68 (treatment: MLN4924 1 uM, 8 h).

Regarding CYYQPAPYVSDGNFSNYYVAHPPV [TENT5C], the protein stability index came out at 2.24 ± 0.3 (treatment: DMSO) and 2.43 ± 0.45 (treatment: MLN4924 1 uM, 8 h).

For TWLPSRAEWLLAVRSIQPEEKERI [AASDHPPT], the protein stability index stood at 3.3 ± 0.31 (treatment: DMSO) and 3.29 ± 0.2 (treatment: MLN4924 1 uM, 8 h).

For VAHVESLQEKSQCALEEYVRSQYP [NR2F2], the protein stability index was found to be 3.6 ± 0.28 (treatment: DMSO) and 3.96 ± 0.25 (treatment: MLN4924 1 uM, 8 h).

Take STNDKTVKLWKVSERDKRPEGYNL [PPP2R2B]: the protein stability index amounted to 3.93 ± 0.12 (treatment: DMSO) and 4.19 ± 0.14 (treatment: MLN4924 1 uM, 8 h).

On to SAQLQELVCHVMMGNLVMFRKDSV [INTS3], for which the protein stability index came out at 3.07 ± 0.38 (treatment: DMSO) and 2.83 ± 0.37 (treatment: MLN4924 1 uM, 8 h).
